Reference: PMC10191176 (Nature immunology, 2022)

Legend:
[1] = biological target: HLA-DR4 (DRA*0101/DRB1*0401) with the linked p24 HIV Gag peptide 164-183 (HLA-DR4^HIV) (human | HIV); test: SPR
[2] = biological target: HLA-DR4 loaded with CLIP peptide (UniProt P04233); test: SPR
SEC-MALS = biological target: the molecule itself; test: SEC-MALS
[3] = biological target: T1, yeast-displayed FGL1^FD Y244A/E245A (human, UniProt Q08830 58-312, Y244A | E245A); test: flow cytometry on cells
T1 sequence (looked up): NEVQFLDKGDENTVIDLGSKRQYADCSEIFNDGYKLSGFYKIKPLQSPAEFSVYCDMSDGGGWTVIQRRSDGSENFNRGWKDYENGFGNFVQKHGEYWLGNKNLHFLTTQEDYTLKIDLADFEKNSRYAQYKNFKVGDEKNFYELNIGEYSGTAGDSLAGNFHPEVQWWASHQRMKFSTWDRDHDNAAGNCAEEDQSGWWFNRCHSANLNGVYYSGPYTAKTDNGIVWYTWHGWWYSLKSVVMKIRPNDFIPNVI

[4] = biological target: T2, yeast-displayed FGL1^FD E250A/E251A/D252A (human, UniProt Q08830 58-312, E250A | E251A | D252A); test: flow cytometry on cells
T2 sequence (looked up): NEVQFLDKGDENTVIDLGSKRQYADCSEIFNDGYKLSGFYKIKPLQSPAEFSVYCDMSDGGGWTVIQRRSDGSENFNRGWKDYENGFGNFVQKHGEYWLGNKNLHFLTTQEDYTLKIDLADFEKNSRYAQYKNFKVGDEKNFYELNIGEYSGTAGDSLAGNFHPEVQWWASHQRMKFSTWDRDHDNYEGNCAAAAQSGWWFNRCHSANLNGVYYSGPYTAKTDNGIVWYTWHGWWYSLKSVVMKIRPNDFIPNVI

Sequence of HLA-DR4 loaded with CLIP peptide (P04233 whole entry, looked up, tested part not stated): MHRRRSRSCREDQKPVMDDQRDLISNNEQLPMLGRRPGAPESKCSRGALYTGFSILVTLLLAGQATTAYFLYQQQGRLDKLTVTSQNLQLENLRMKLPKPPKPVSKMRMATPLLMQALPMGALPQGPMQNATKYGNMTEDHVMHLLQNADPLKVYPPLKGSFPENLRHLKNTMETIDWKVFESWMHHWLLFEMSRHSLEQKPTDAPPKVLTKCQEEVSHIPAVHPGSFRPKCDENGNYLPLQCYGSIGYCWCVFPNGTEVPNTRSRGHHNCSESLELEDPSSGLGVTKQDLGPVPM

## hLAG3* (human LAG3 extracellular domain with the M171I mutation) (from UniProt P18627 23-450) (domain or fragment)
[1]
  Kd: 5.2 µM
[2]
  Kd: 2450 nM

B1: murine LAG3 extracellular domain (mLAG3, residues 23-442) (domain or fragment, mouse, UniProt Q61790 23-442, looked up)
chain: SGPGKELPVVWAQEGAPVHLPCSLKSPNLDPNFLRRGGVIWQHQPDSGQPTPIPALDLHQGMPSPRQPAPGRYTVLSVAPGGLRSGRQPLHPHVQLEERGLQRGDFSLWLRPALRTDAGEYHATVRLPNRALSCSLRLRVGQASMIASPSGVLKLSDWVLLNCSFSRPDRPVSVHWFQGQNRVPVYNSPRHFLAETFLLLPQVSPLDSGTWGCVLTYRDGFNVSITYNLKVLGLEPVAPLTVYAAEGSRVELPCHLPPGVGTPSLLIAKWTPPGGGPELPVAGKSGNFTLHLEAVGLAQAGTYTCSIHLQGQQLNATVTLAVITVTPKSFGLPGSRGKLLCEVTPASGKERFVWRPLNNLSRSCPGPVLEIQEARLLAERWQCQLYEGQRLLGATVYAAESSSGAHSARRISGDLKGGHL
SEC-MALS
  stoichiometry N: 2

B2: hLAG3* (human LAG3 extracellular domain with the M171I mutation) (domain or fragment, UniProt P18627 23-450, looked up)
chain: LQPGAEVPVVWAQEGAPAQLPCSPTIPLQDLSLLRRAGVTWQHQPDSGPPAAAPGHPLAPGPHPAAPSSWGPRPRRYTVLSVGPGGLRSGRLPLQPRVQLDERGRQRGDFSLWLRPARRADAGEYRAAVHLRDRALSCRLRLRLGQASITASPPGSLRASDWVILNCSFSRPDRPASVHWFRNRGQGRVPVRESPHHHLAESFLFLPQVSPMDSGPWGCILTYRDGFNVSIMYNLTVLGLEPPTPLTVYAGAGSRVGLPCRLPAGVGTRSFLTAKWTPPGGGPDLLVTGDNGDFTLRLEDVSQAQAGTYTCHIHLQEQQLNATVTLAIITVTPKSFGSPGSLGKLLCEVTPVSGQERFVWSSLDTPSQRSFSGPWLEAQEAQLLSQPWQCQLYQGERLLGAAVYFTELSSPGAQRSGRAPGALPAGHL
modifications: biotin on the BAP tag (BirA ligase) in binding experiments
[3]
  reduction of binding relative to wild-type FGL1^FD: 75%
[4]
  reduction of binding relative to wild-type FGL1^FD: 80%
